According to patent publication US20190276526A1 (AbbVie / Abbott, published 2019):

B1: AE12-6 (antibody, V domains shown)
VH: EVQLVQSGAEVKKPGASVKVSCKASGYIFTNYDIAWVRQAPGQGLEWMGWMNPDSGNTGFVQKFKGRVTATSNTDITTAYMELSSLTSEDTAVYYCARDRFGSGYDLDHWGQGTLVTVSS
VL: SYELTQPPSVSVAPGQTARITCGGNNIGSKSVHWYQQKPGQAPVLVVYDDSDRPSGIPERFSGSNSGNTATLTISRVEAGDEADYYCQVWGSSSDHYVFGTGTKVTVL
notes: lambda light chain
B2: AE12-1-V (antibody, V domains shown)
VH: EVQLVQSGAEVKKPGASVKVSCKASGYTFTSHGISWVRQAPGQGLDWMGWISPYSGNTNYAQKLQGRVTMTTDTSTSTAYMELSSLRSEDTAVYYCARVGSGPYYYMDVWGQGTLVTVSS
VL: QSALTQPRSVSGSPGQSVTISCTGTSSSVGDSIYVSWYQQHPGKAPKLMLYDVTKRPSGVPDRFSGSKSGNTASLTISGLQAEDEADYYCVSYAGTDTLFGGGTKVTVL

Experiments:
[1] = molecular target: T1, hRGMa-Fc (human, UniProt Q96B86 47-422, limits assumed, biotinylated in the neogenin ELISA and the MSD assay); assay: HCS (high content analysis) live cell binding inhibition assay: Fc-tagged RGMa complexed with Cy3-labeled anti-Fc antibody, preincubated with the antibody, then added to cells for 30 min at 37 C; blocked: RGMa-Fc binding to SH-SY5Y cells; n=2
T1 construct: also called biot-hRGMa-Fc; biotinylated hRGMa-Fc; not shown: Fc part
T1 sequence: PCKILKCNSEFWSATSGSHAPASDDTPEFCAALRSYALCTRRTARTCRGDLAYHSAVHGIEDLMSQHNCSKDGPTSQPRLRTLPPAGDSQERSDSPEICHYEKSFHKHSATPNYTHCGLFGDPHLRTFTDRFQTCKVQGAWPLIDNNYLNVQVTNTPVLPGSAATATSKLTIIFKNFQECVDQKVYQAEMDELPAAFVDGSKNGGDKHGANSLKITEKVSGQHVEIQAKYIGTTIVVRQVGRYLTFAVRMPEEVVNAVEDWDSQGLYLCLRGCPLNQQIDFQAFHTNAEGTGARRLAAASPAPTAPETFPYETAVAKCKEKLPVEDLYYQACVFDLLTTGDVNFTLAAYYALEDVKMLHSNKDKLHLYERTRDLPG
Procedure: FIGS. 13A-F and 14A-H illustrate the neutralizing effects of the specified antibodies on RGMa binding to neuronal cells using a live cell binding assay on SH-SY5Y cells and rat hippocampal primary neurons. Fc-tagged RGMa and Cy3-labeled anti-Fc antibodies are complexed at 4° C. for 60 minutes, followed by an incubation of the complex with a blocking antibody at room temperature for 10 minutes. The RGMa-Cy3 +antibody complex is then added to cells together with Hoechsts 33342 for 30 minutes at 37° C. to allow binding onto the cells. The cell are then washed twice in culture medium and fixed with PFH. Cell imaging is performed with the BD Pathway and images analyzed with the Definiens Architect software.

[2] = molecular target: T2, Rat RGMa-His (rat) (UniProt D4A188); assay: BIAcore
T2 sequence: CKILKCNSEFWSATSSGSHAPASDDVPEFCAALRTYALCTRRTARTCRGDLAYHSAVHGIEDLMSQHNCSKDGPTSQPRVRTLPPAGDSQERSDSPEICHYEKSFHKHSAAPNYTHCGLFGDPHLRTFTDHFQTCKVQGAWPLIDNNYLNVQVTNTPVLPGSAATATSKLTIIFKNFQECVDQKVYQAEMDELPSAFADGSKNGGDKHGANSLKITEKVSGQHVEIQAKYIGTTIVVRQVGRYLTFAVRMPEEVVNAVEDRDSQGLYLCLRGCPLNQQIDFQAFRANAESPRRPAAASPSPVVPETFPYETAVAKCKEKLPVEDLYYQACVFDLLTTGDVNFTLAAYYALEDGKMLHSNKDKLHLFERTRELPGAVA

Row | Binder | IC50 (read off the curve) [1] [nM] | kon [2] [M⁻¹ s⁻¹]
1 | B1 | ~10 | –
2 | B2 | – | 22000
